Key:
SbABI4 (rABI4) [1] = target: T1, SbABI4 (rABI4) (Sorghum bicolor (inbred line IS9530), UniProt A0A1B6P7N1 1-257); test: competition; 200-600 ng vs 40 ng N1; no effect; 25 mM Tris-HCl pH 7.4, 30 mM KCl, 3 mM MgCl2, 0.5 mM EDTA, 14 mM 2-mercaptoethanol, 1 mM DTT, 10% glycerol, 0.05% NP-40, 10 ug/ml BSA, 50 ug/ml salmon sperm DNA, 40 ng probe, 30 min, room temperature; settings: protein: recombinant; tags: C-terminal His (pET24a); blunt
SbABI5 (rABI5) [2] = target: T2, SbABI5 (rABI5) (Sorghum bicolor (inbred line IS9530), UniProt C5XSV4 1-346); test: as above; settings: protein: recombinant; tags: C-terminal His (pET24a); chain copies: 2; blunt
T2 sequence: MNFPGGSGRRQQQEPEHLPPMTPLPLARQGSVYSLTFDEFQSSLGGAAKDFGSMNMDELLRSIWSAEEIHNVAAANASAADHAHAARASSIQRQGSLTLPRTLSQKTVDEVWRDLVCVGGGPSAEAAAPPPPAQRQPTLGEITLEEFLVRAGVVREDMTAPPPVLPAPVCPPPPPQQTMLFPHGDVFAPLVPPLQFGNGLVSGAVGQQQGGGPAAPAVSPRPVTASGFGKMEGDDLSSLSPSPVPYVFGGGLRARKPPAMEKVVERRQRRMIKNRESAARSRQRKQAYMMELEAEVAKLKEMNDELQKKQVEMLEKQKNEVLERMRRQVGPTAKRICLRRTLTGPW

SbABI4 (rABI4) [3] = target: T1, SbABI4 (rABI4); test: EMSA; five complexes; 25 mM Tris-HCl pH 7.4, 30 mM KCl, 3 mM MgCl2, 0.5 mM EDTA, 14 mM 2-mercaptoethanol, 1 mM DTT, 10% glycerol, 0.05% NP-40, 10 ug/ml BSA, 50 ug/ml salmon sperm DNA, 40 ng probe, 30 min, room temperature; settings: protein: recombinant; tags: C-terminal His (pET24a); label: 5'-biotin on strand 1; blunt
SbABI5 (rABI5) [4] = target: T2, SbABI5 (rABI5); test: EMSA; four complexes; 25 mM Tris-HCl pH 7.4, 30 mM KCl, 3 mM MgCl2, 0.5 mM EDTA, 14 mM 2-mercaptoethanol, 1 mM DTT, 10% glycerol, 0.05% NP-40, 10 ug/ml BSA, 50 ug/ml salmon sperm DNA, 40 ng probe, 30 min, room temperature; settings: protein: recombinant; tags: C-terminal His (pET24a); chain copies: 2; label: 5'-biotin on strand 1; blunt
SbABI4 (rABI4) [5] = target: T1, SbABI4 (rABI4); test: EMSA; additional retarded complex; 25 mM Tris-HCl pH 7.4, 30 mM KCl, 3 mM MgCl2, 0.5 mM EDTA, 14 mM 2-mercaptoethanol, 1 mM DTT, 10% glycerol, 0.05% NP-40, 10 ug/ml BSA, 50 ug/ml salmon sperm DNA, 40 ng probe, 30 min, room temperature; settings: protein: recombinant; tags: C-terminal His (pET24a); label: 5'-biotin on strand 1; blunt
SbABI5 (rABI5) [6] = target: T2, SbABI5 (rABI5); test: EMSA; 25 mM Tris-HCl pH 7.4, 30 mM KCl, 3 mM MgCl2, 0.5 mM EDTA, 14 mM 2-mercaptoethanol, 1 mM DTT, 10% glycerol, 0.05% NP-40, 10 ug/ml BSA, 50 ug/ml salmon sperm DNA, 40 ng probe, 30 min, room temperature; settings: protein: recombinant; tags: C-terminal His (pET24a); chain copies: 2; label: 5'-biotin on strand 1; blunt

T1 sequence (A0A1B6P7N1 entry or part of it): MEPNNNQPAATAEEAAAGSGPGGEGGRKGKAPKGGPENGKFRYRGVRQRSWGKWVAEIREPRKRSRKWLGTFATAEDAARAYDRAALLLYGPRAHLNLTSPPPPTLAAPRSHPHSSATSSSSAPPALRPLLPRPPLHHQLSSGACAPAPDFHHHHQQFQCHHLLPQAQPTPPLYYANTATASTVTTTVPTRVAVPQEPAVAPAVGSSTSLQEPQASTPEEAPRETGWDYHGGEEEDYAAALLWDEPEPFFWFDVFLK

B1: SbGAMyb non-specific competitor 183 bp (dsDNA)
DNA 1: TCTGGGAAGAACCAACAACCATCGGTCCGAAGTTCAAGTTCTTCTGCTGGCACACCTTGTGAGACTACTACGGTGGTTAGCCCAGAGTTTGATATGGGCCAGGAATATTGGGAAGAACAGCCTGGTTCTTTCCTCAGTGAATATGCTCATTTTAGTGGAAATTCTTTGACCGAATCCACTCCT
DNA 2: AGGAGTGGATTCGGTCAAAGAATTTCCACTAAAATGAGCATATTCACTGAGGAAAGAACCAGGCTGTTCTTCCCAATATTCCTGGCCCATATCAAACTCTGGGCTAACCACCGTAGTAGTCTCACAAGGTGTGCCAGCAGAAGAACTTGAACTTCGGACCGATGGTTGTTGGTTCTTCCCAGA
binding result (SbABI4 (rABI4) [1]): no binding | binding result (SbABI5 (rABI5) [2]): no binding

B2: AtEm6 promoter probe 186 bp (dsDNA)
DNA 1: AGTTAAAGAACACGCGGCGAAGAAGTACGGCCACTACCACGTTCAAAGTATACGTCAGCTAATAAAGTCAGACACGTGGCATGTCACCAAGAAAGAAGAGCATACGTATGACGTACCGATTGTCCCTGAGTCACCACGTCGAACATCCACGATGCAACACAACCAAAACGCCCTCCGGATTGA
DNA 2: TCAATCCGGAGGGCGTTTTGGTTGTGTTGCATCGTGGATGTTCGACGTGGTGACTCAGGGACAATCGGTACGTCATACGTATGCTCTTCTTTCTTGGTGACATGCCACGTGTCTGACTTTATTAGCTGACGTATACTTTGAACGTGGTAGTGGCCGTACTTCTTCGCCGCGTGTTCTTTAACT
binding result (SbABI4 (rABI4) [3]): binds | binding result (SbABI5 (rABI5) [4]): binds

B3: SbGA2ox3 probe a (intact ABRE and CE) (dsDNA)
DNA 1: GGGCGCCGTGGGAAAACTGCTATTGGCCGGCGTGCCATCGCCTCGTATCGTATGCGTCTCCCATGGAGCCATGCATGCAGCGCGGCGGGCCGACCTGCCACCGGTGGATCGCGTCCGGACACGTCGCGCCC
DNA 2: GGGCGCGACGTGTCCGGACGCGATCCACCGGTGGCAGGTCGGCCCGCCGCGCTGCATGCATGGCTCCATGGGAGACGCATACGATACGAGGCGATGGCACGCCGGCCAATAGCAGTTTTCCCACGGCGCCC
binding result (SbABI4 (rABI4) [5]): binds | binding result (SbABI5 (rABI5) [6]): binds
